Data as given in US6428781B1, “Composition of an endogenous insulin-like growth factor-II derivative” (Daiichi Pharmaceutical Co., Ltd., priority 1996, dated 2002).

Experiments:
[1] = target: T1, rat IGFBP-3 (RBP-3 E. coli) (Rattus norvegicus, UniProt P15473); experiment: Solid-phase binding of HRP-IGF-II to immobilized IGFBP-3, competitive inhibition; conditions: for inhibitory activity against the binding of IGF-II to IGFBP-3 (RBP-3 E. coli): final concentration of each compound 100 μg/ml, compared to the other test compounds of Table 1
T1 construct: made in house; host or cells: Escherichia coli (periplasm)
T1 sequence (P15473 28-292): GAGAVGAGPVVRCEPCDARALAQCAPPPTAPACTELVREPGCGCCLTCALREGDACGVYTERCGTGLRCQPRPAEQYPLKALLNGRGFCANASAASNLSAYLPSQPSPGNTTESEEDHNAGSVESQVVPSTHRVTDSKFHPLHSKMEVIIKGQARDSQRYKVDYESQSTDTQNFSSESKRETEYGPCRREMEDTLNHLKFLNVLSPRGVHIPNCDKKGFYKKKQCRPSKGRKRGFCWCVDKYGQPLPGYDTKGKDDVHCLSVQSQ
Protocol: A 96-well microtiter plate manufactured by Costar Corp.; 50 mM sodium phosphate buffer (pH 6.5) as a basic buffer for immuobilization; basic buffer supplemented with 0.03% Tween 20, basic buffer supplementee with 1% BSA and basic buffer supplemented with 0.25% BSA an 0.03% Tween 20 were used in the washing, blocking and binding steps, respectively. After each reaction, wells were washed twice with 400 μl/well of buffer. Horseradish peroxidase-labeled IGF-II (hereinafter “HRP-IGF-II”) was prepared using a commercially available kit (PIERCE Chemichal Company).
To the microtiter plate, RBP-3 E. coli (150 ng/ml) was added in an amount of 50 μl/well and allowed to stand overnight at 4° C. for immobilization. After blocking, 50 μl/well of HRP-IGF-II (final concentration diluted 12,000-fold) was added at 25° C. for 2 hours in the presence or absence of a test compound. Test compounds at various concentrations were added to each well in a total volume of 50 μl.
In the final step, a solution of 2,2′-azino-bis(3-ethylbenzthiazoline-6-sulfonic acid) (hereinafter “ABTS”; Kirkegaard & Perry Laboratories) was added to each well (100 μl/well) and allowed to stand at room temperature. The absorbance (O.D.) at 405 nm was measured on a plate reader (“VMAX™”, Molecular Devices).
The absorbance in the absence of a test compound is designated “B0”, and in the presence of a test compound is designated as “B”. The absorbance in the absence of both a test compound and using a non-immobilized well (a well not containing RBP-3 E. coli) is designated as nonspecific bound (NSB). The percent binding of labeled IGF-II to immobilized IGFBP-3 in the presence of a test compound is calculated from the following equation: […]
The binding reactions for each of the test compounds, was performed triplicate. The average value is plotted and the SD value is indicated with a bar (refer to FIG. 8).
Each compound was dissolved or suspended in basic buffer containing 5% methanol at a final concentration of 1 mg/ml. The resulting solution or suspension was diluted with the reaction buffer 5-fold or to a final concentration of 200 μg/ml. The final concentration of each compound at the time of measurement was 100 μg/ml.
The percent binding of IGF-II to IGFBP-3 (RBP-3 E. coli) in the presence of a test compound was calculated using the following formula:
“percent total bound (100(%))−percent actual bound (%)”=percent inhibitory activity (%) of the test specimen.
Measurements for each of the test compounds were performed twice, and the average inhibitory activity was determined.

[2] = test system: cell proliferation; conditions: Sakano et al. 1991; cited from earlier work
[3] = target: insulin receptor (Homo sapiens, UniProt P06213); conditions: Sakano et al. 1991; cited from earlier work
[4] = target: IGF-II/cation-independent mannose-6-phosphate receptor (Homo sapiens, UniProt P11717); conditions: Sakano et al. 1991; cited from earlier work
IGF-II/cation-independent mannose-6-phosphate receptor, sequence (P11717 41-2491): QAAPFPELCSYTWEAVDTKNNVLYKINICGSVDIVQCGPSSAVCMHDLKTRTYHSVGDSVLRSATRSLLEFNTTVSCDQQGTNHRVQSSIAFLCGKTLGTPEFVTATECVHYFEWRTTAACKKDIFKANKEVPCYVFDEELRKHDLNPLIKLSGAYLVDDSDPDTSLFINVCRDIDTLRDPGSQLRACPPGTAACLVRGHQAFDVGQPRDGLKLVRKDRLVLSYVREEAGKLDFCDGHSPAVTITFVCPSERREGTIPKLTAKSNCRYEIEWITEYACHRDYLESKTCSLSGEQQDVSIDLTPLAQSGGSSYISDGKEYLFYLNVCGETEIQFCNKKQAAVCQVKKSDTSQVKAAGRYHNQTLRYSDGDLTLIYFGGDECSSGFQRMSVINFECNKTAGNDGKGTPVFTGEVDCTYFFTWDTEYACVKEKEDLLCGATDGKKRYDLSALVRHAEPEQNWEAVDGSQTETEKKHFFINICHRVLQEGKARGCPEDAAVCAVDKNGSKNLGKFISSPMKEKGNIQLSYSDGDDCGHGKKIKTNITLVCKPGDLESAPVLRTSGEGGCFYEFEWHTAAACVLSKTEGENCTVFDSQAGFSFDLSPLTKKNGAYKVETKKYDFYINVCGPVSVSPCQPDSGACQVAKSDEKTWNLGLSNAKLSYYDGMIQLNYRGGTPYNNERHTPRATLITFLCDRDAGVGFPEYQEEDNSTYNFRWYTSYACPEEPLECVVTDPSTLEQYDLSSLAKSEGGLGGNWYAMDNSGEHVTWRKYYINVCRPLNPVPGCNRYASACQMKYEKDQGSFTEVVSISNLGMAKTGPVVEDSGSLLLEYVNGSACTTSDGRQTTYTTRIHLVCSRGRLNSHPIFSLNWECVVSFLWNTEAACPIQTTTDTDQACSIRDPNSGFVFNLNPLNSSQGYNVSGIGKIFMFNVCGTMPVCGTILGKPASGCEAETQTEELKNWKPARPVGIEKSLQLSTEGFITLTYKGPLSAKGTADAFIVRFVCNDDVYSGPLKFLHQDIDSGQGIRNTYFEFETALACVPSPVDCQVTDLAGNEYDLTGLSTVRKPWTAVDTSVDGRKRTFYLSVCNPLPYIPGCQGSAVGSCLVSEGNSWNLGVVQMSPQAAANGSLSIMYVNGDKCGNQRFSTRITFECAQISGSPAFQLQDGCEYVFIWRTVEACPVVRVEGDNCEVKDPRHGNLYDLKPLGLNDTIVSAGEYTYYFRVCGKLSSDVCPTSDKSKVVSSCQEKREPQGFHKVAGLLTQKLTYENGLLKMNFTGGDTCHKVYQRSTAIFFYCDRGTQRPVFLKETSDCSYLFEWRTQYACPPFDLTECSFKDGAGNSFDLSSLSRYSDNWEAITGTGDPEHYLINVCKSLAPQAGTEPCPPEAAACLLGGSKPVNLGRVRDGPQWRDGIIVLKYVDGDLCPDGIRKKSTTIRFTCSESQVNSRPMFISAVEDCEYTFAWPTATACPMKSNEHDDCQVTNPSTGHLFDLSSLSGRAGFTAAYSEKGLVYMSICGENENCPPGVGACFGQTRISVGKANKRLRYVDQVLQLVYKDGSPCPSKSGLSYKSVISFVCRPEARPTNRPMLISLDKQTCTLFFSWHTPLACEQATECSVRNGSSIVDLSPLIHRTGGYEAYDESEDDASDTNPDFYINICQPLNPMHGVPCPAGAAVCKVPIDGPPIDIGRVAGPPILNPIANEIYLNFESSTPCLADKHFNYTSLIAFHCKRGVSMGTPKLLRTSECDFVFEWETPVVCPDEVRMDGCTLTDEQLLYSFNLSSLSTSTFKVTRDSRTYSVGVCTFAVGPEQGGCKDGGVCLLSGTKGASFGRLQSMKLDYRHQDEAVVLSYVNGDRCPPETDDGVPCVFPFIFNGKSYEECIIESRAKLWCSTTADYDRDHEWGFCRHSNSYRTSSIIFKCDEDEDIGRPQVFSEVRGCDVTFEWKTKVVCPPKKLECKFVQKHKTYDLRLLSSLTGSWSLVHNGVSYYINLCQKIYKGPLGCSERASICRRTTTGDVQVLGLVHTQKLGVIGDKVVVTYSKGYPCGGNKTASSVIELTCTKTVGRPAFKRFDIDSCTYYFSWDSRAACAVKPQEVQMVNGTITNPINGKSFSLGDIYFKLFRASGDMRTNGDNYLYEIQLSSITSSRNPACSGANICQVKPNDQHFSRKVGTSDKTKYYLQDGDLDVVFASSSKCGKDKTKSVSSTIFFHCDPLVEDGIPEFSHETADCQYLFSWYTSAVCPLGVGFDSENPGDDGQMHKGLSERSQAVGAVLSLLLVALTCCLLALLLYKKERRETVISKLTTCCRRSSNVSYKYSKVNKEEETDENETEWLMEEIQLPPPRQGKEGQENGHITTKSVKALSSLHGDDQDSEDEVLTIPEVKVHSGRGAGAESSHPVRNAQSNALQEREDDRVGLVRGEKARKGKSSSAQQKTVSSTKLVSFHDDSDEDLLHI

[5] = target: IGF-I receptor (Homo sapiens, UniProt P08069); conditions: Sakano et al. 1991; cited from earlier work
[6] = target: IGFBP-3 (Homo sapiens, UniProt P17936); conditions: Bach et al. 1993; cited from earlier work
IGFBP-3, sequence (P17936 28-291, species assumed): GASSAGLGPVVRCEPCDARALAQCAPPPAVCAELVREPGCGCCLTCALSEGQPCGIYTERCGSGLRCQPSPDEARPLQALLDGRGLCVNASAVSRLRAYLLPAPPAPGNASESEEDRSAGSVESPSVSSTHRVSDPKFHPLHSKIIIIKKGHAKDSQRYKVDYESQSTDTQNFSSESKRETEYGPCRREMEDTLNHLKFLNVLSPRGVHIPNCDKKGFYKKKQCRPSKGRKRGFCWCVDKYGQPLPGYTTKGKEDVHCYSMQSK

[7] = target: T2, human placental IGF-I receptor (Homo sapiens, UniProt P08069); experiment: IGF-I receptor radioreceptor binding assay with 125I-IGF-I
T2 construct: human placental IGF-I receptor; from tissue; host or cells: human placenta
Protocol: (§1) The [Leu27, Leu43]rIGF-II derivative described in Example 8, was characterized for its binding affinity to human placental IGF-I receptor and human placental insulin receptor using a radioreceptor assay (Le Bon, T. R., et al., J. Biol. Chem., 261, 7685 (1986); Fujita-Yamaguchi, Y., et al., J. Biol. Chem., 258, 5045 (1983)).
(§2) In the first step, ^125I-IGF (or ^125I-insulin) (Amersham International plc) in an amount of 2×10^4 cpm was incubated with various amounts of the IGF receptor or the insulin receptor, to determine an amount of the receptor to which 50% of ^125I-IGF (or ^125I-insulin) binds.
(§3) [Leu27, Leu43]rIGF-II was added at various concentrations to aliquots of the mixture containing the determined amount of the receptor and ^125I-IGF (or ^125I-insulin) (2×10^4 cpm). The final volume of the reaction mix was brought to […] using a 50 mM Tris-HCl buffer (pH 7.4) containing 0.1% BSA and 0.075% Triton X-100, and allowed to incubate overnight at 4° C. […] The reaction mixture was centrifuged (3000 rpm×30 min, 4° C.), the supernatant decanted, and the cpm value for the pellet was measured by gamma counting. […]
(§4) The cpm value in the absence of a receptor is designated as nonspecific bound (NSB). […] The percent binding to a receptor is calculated from the following equation: […]

[8] = target: T3, human placental insulin receptor (Homo sapiens, UniProt P06213); experiment: Insulin receptor radioreceptor binding assay with 125I-insulin
T3 construct: human placental insulin receptor; from tissue; host or cells: human placenta
Protocol: as §1, §2, §3, §4

[9] = Evaluation of blood lipid level (1), nonfasting SD rats; type: in vivo; conditions: plasma; for total glyceride concentration 6 hours after administration, compared to negative control: IGF-I 50 μg/kg s.c., anti-RBP-3 pAb #35 20 mg/head i.p.; for total glyceride concentration 6 hours after administration, compared to negative control / total cholesterol concentration 24 hours after administration, compared to negative control: [Leu27, Leu43]rIGF-II 1,000 μg/kg s.c.
Protocol: [Leu27, Leu43]rIGF-II (1,000 μg/kg) was administered, subcutaneously, to a group of nonfasting SD rats (n=3, 8 weeks old, male, average weight: 300 g, purchased from Charles River Japan).
Anti-RBP-3 pAb #35 (20 mg/head) was administered, intraperitoneally, to another group of SD rats.
As a negative control, physiological saline (500 μl/head) was administered, subcutaneously, and as a positive control group, IGF-I (50 μg/kg, 200 μg/kg) was administered, subcutaneously.
About 500 μl of blood was sequentially collected into EDTA-coated glass tubes from the caudal vein. Thirty minutes after collection, the blood was centrifuged (3,500 rpm×12 mm 25° C.), and plasma supernatant was recovered and stored at −80° C. until assayed. The total cholesterol and total triglyceride concentrations of the plasma were measured in accordance with a “Hitachi 715 model” automatic analyzer using the enzyme method of “Autocera CH02 and TG2” (each, manufactured by Daiichi Pure Chemicals Co., Ltd.).

[10] = adult humans, intravenous injection, 100 μg/kg; Guler et al. 1987; cited from earlier work

## Heparin [Compound 31]
[1]
  inhibitory activity against the binding of IGF-II to IGFBP-3 (RBP-3 E. coli): potent inhibitory activity

## CC[C@@]1(O)C[C@H](O[C@H]2C[C@H](N(C)C)[C@H](O[C@H]3C[C@H](O)[C@H](O[C@H]4CCC(=O)[C@H](C)O4)[C@H](C)O3)[C@H](C)O2)c2c(cc3c(c2O)C(=O)c2c(O)cccc2C3=O)[C@H]1C(=O)OC [Compound 29, Aclacinomycin A]
[1]
  inhibitory activity against the binding of IGF-II to IGFBP-3 (RBP-3 E. coli): potent inhibitory activity

## [Leu 43] rIGF-II: human IGF-II derivative with a single amino acid substitution (Leu at position 43), from the literature
[2]
  effect on cell proliferation: significantly lowered effect
[3]
  binding to the insulin receptor: almost no binding
[4]
  binding to the IGF-II/cation-independent mannose-6-phosphate receptor: bind
[5]
  binding to the IGF-I receptor: almost no binding
[6]
  binding to IGFBP-3 compared to wild type: almost similar to the wild type

## [Leu27, Leu43]rIGF-II: human IGF-II derivative; tyrosine at residue 27 and valine at residue 43 each replaced with leucine
[1]
  affinity for IGFBP-3: has affinity for IGFBP-3
[1]; procedure of Example 10
  inhibition of the binding of IGF (labeled IGF-II) and immobilized IGFBP-3: at concentrations similar to those seen for IGF-II
[7]
  affinity for / binding to the IGF-I receptor: little or no binding
  affinity for the IGF-I receptor, as % of that for IGF-I: 1 to 2%
[8]
  affinity for / binding to the insulin receptor: little or no binding
  affinity for the insulin receptor, as % of that for insulin: 1 to 2%
[9]
  total glyceride concentration 6 hours after administration, compared to negative control: tendency toward lowering
[9]; IGF-I 200 μg/kg s.c.
  total cholesterol concentration 24 hours after administration, compared to negative control: significant decrease

## IGF-I: Human IGF-I purchased from GroPep Pty. Ltd.; positive control
[10]
  blood glucose levels: lowering of blood glucose levels
  time of lowest blood glucose level after injection: 20 min
[9]
  total glyceride concentration 6 hours after administration, compared to negative control: significantly decreased
[9]; IGF-I 200 μg/kg s.c.
  total cholesterol concentration 6 hours after administration, compared to negative control: significantly decreased
  total cholesterol concentration 24 hours after administration, compared to negative control: significantly decreased

## [Leu 27] rIGF-II: human IGF-II derivative with a single amino acid substitution (Leu at position 27), from the literature
[2]
  effect on cell proliferation: significantly lowered effect
[3]
  binding to the insulin receptor: almost no binding
[4]
  binding to the IGF-II/cation-independent mannose-6-phosphate receptor: bind
[5]
  binding to the IGF-I receptor: almost no binding
[6]
  binding to IGFBP-3 compared to wild type: almost similar to the wild type

## O=c1oc2c(O)c(O)cc3c(=O)oc4c(O)c(O)cc1c4c23 [Compound 27, Ellagic acid]
[1]
  inhibitory activity against the binding of IGF-II to IGFBP-3 (RBP-3 E. coli): potent inhibitory activity
